Reference: publication PMC5568661
Where two headings read alike, the source gives them in different places.

What was measured:
Assay in all cases: NMR 15N-HSQC titration
Ets-1 ΔN301 [1] = target: T1, Ets-1 ΔN301 (murine, UniProt P27577 301-440)
T1 sequence: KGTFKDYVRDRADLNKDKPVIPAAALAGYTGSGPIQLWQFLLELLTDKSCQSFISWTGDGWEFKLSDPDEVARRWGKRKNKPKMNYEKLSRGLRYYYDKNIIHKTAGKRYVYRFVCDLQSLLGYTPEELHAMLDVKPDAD

Ets-1 ΔN301 [2] = target: T1, Ets-1 ΔN301; remark: listed apart in the source
Ets-1 ΔN301 [3] = target: T1, Ets-1 ΔN301; remark: listed apart in the source
Ets-1 ΔN279 = target: T2, Ets-1 ΔN279 (murine, UniProt P27577 279-440)
T2 sequence: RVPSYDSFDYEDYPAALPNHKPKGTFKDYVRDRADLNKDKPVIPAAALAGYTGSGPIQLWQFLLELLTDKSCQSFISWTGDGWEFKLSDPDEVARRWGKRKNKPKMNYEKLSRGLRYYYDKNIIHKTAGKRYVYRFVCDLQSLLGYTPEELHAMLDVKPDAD

Ets-1 ΔN301 [4] = target: T1, Ets-1 ΔN301; remark: listed apart in the source

B1: DNANSP9 (dsDNA)
DNA 1: GCACTCTAG
DNA 2: CTAGAGTGC
Kd (Ets-1 ΔN301 [1]): ~10 µM

B2: DNANSP15 (dsDNA)
DNA 1: GATGCAGTGTAGTCG
DNA 2: CGACTACACTGCATC
Kd (Ets-1 ΔN301 [2]): < 10 µM

B3: DNASP12 (dsDNA)
DNA 1: CAGCCGGAAGTG
DNA 2: CACTTCCGGCTG
binding result (Ets-1 ΔN301 [3]): binds

B4: DNASP14 (dsDNA)
DNA 1: CCAAGCCGGAAGTG
DNA 2: CACTTCCGGCTTGG
binding result (Ets-1 ΔN279): binds

B5: DNASP9 (dsDNA)
DNA 1: GCCGGAAGT
DNA 2: ACTTCCGGC
binding result (Ets-1 ΔN301 [4]): binds
